Data on two molecules can be found in patent publication US20100183649A1 (ACADEMIA SINICA, published 2010).

The chains are these.
B1: FMDV capsid protein VP1 (other)
chain: TTSAGESADPVTATVENYGGETQVQRRQHTDIAFILDRFVKVKPKEQVNVLDLMQIPAHTLVGALLRTATYYFSDLELAVKHEGDLTWVPNGAPETALDNTTNPTAYHKEPLTRLALPYTAPHRVLATVYNGSSKYGDTSTNNVRGDLQVLAQKAERTLPTSFNFGAIKATRVTELLYRMKRAETYCPRPLLAIQPSDARHKQRIVAPAKQLL
B2: FMDV capsid protein VP3 (other)
chain: GIFPVACSDGYGGLVTTDPKTADPVYGKVFNPPRNLLPGRFTNLLDVAEACPTFLHFDGDVPYVTTKTDSDRVLAQFDLSLAAKHMSNTFLAGLAQYYTQYSGTINLHFMFTGPTDAKARYMVAYAPPGMEPPKTPEAAAHCIHAEWDTGLNSKFTFSIPYLSAADYAYTASDVAETTNVQGWVCLFQITHGKADGDALVVLASAGKDFDLRLPVDARTQ

For one assay, the target named is FMDV capsid protein VP0 (foot-and-mouth disease virus, UniProt Q6PMV1 218-504). The assay can be described thus: size exclusion HPLC of the U1P1 protease-treated product. Background: Size exclusion chromatography separates by hydrodynamic size, large species first.
The assay “FMDV capsid protein VP3” addresses B2. Described as above.

As for B1, the binding result in the assay with FMDV capsid protein VP0 and in the assay with FMDV capsid protein VP3 was “binds” in each case.
For the molecule B2, the binding result with FMDV capsid protein VP0 is listed as “binds”.
